This note sets out measurements from paper PMC9388135 (Proceedings of the National Academy of Sciences of the …, 2022).

This series concerns the molecule itself. The series can be described thus: SEC.

B1: KicGAS L17R (natural protein, UniProt Q2HR80 1-131, looked up)
chain: MAAPRGRPKKDLTMEDRTAKISQLTVENRELRKALGSTADPRDRPLTATEKEAQLTATVGALSAAAAKKIEARVRTIFSKVVTQKQVDDALKGLSLRIDVCMSDGGTAKPPPGANNRRRRGASTTRAGVDD
For B1, the “stoichiometry N” value was 2.

B2: KicGAS P41S/P45I (natural protein, UniProt Q2HR80 1-131, looked up)
chain: MAAPRGRPKKDLTMEDLTAKISQLTVENRELRKALGSTADSRDRILTATEKEAQLTATVGALSAAAAKKIEARVRTIFSKVVTQKQVDDALKGLSLRIDVCMSDGGTAKPPPGANNRRRRGASTTRAGVDD
With B2, the binding result is given as “binds”.

B3: KicGAS L35R (natural protein, UniProt Q2HR80 1-131, looked up)
chain: MAAPRGRPKKDLTMEDLTAKISQLTVENRELRKARGSTADPRDRPLTATEKEAQLTATVGALSAAAAKKIEARVRTIFSKVVTQKQVDDALKGLSLRIDVCMSDGGTAKPPPGANNRRRRGASTTRAGVDD
In the case of B3, the binding result was “binds”.

B4: KicGAS L35A (natural protein, UniProt Q2HR80 1-131, looked up)
chain: MAAPRGRPKKDLTMEDLTAKISQLTVENRELRKAAGSTADPRDRPLTATEKEAQLTATVGALSAAAAKKIEARVRTIFSKVVTQKQVDDALKGLSLRIDVCMSDGGTAKPPPGANNRRRRGASTTRAGVDD
Regarding B4, the binding result was “binds”.

B5: KicGAS^9-104 (domain or fragment, UniProt Q2HR80 9-104, looked up)
chain: KKDLTMEDLTAKISQLTVENRELRKALGSTADPRDRPLTATEKEAQLTATVGALSAAAAKKIEARVRTIFSKVVTQKQVDDALKGLSLRIDVCMSD
Consider B5, for which the binding result is recorded as “binds”.
